Data: article PMC7078158, “Enzymes Catalyzing Crotonyl-CoA Conversion to Acetoacetyl-CoA During the Autotrophic CO2 Fixation in Metallosphaera sedula” (Frontiers in Microbiology, 2020)

Legend:
Type in all cases: biochemical, Metallosphaera sedula
[1] = substrate: C[C@H](O)CC(=O)SCCNC(=O)CCNC(=O)[C@H](O)C(C)(C)COP(=O)(O)OP(=O)(O)OC[C@H]1O[C@@H](n2cnc3c(N)ncnc32)[C@H](O)[C@@H]1OP(=O)(O)O; experiment: (S)-3-hydroxybutyryl-CoA dehydrogenase assay; settings: 0.5 mM NAD, 65 °C, apparent Km
Source text: (§1) (S)-3-hydroxybutyryl-CoA dehydrogenase assay on (S)-3-hydroxybutyryl-CoA dehydrogenase Msed_0389

[2] = substrate: NC(=O)c1ccc[n+]([C@@H]2O[C@H](COP(=O)(O)OP(=O)(O)OC[C@H]3O[C@@H](n4cnc5c(N)ncnc54)[C@H](O)[C@@H]3O)[C@@H](O)[C@H]2O)c1; experiment: (S)-3-hydroxybutyryl-CoA dehydrogenase assay; settings: with (S)-3-hydroxybutyryl-CoA, 65 °C, apparent Km, varied: cofactor
Source text: as §1

[3] = substrate: NC(=O)c1ccc[n+]([C@@H]2O[C@H](COP(=O)(O)OP(=O)(O)OC[C@H]3O[C@@H](n4cnc5c(N)ncnc54)[C@H](OP(=O)(O)O)[C@@H]3O)[C@@H](O)[C@H]2O)c1; experiment: (S)-3-hydroxybutyryl-CoA dehydrogenase assay; settings: with (S)-3-hydroxybutyryl-CoA, 65 °C, apparent Km, varied: cofactor
Source text: as §1

[4] = substrate: C[C@H](O)CC(=O)SCCNC(=O)CCNC(=O)[C@H](O)C(C)(C)COP(=O)(O)OP(=O)(O)OC[C@H]1O[C@@H](n2cnc3c(N)ncnc32)[C@H](O)[C@@H]1OP(=O)(O)O; experiment: (S)-3-hydroxybutyryl-CoA dehydrogenase assay; settings: 0.5 mM NAD, 65 °C, apparent Km; remark: listed apart in the source
Source text: (§2) (S)-3-hydroxybutyryl-CoA dehydrogenase assay on (S)-3-hydroxybutyryl-CoA dehydrogenase Msed_1423

[5] = substrate: NC(=O)c1ccc[n+]([C@@H]2O[C@H](COP(=O)(O)OP(=O)(O)OC[C@H]3O[C@@H](n4cnc5c(N)ncnc54)[C@H](O)[C@@H]3O)[C@@H](O)[C@H]2O)c1; experiment: (S)-3-hydroxybutyryl-CoA dehydrogenase assay; settings: with (S)-3-hydroxybutyryl-CoA, 65 °C, apparent Km, varied: cofactor; remark: listed apart in the source
Source text: as §2

[6] = substrate: NC(=O)c1ccc[n+]([C@@H]2O[C@H](COP(=O)(O)OP(=O)(O)OC[C@H]3O[C@@H](n4cnc5c(N)ncnc54)[C@H](OP(=O)(O)O)[C@@H]3O)[C@@H](O)[C@H]2O)c1; experiment: (S)-3-hydroxybutyryl-CoA dehydrogenase assay; settings: with (S)-3-hydroxybutyryl-CoA, 65 °C, apparent Km, varied: cofactor; remark: listed apart in the source
Source text: as §2

[7] = substrate: CCCCC/C=C/C(=O)SCCNC(=O)CCNC(=O)[C@H](O)C(C)(C)COP(=O)(O)OP(=O)(O)OC[C@H]1O[C@@H](n2cnc3c(N)ncnc32)[C@H](O)[C@@H]1OP(=O)(O)O; experiment: UHPLC, 3-hydroxyoctanoyl-CoA formation; settings: hydratase reaction, 65 °C, apparent Km, buffer in general 100 mM Tris-HCl pH 7.8
Source text: UHPLC, 3-hydroxyoctanoyl-CoA formation on crotonyl-CoA hydratase/(S)-3-hydroxybutyryl-CoA dehydrogenase Msed_0399

[8] = substrate: C/C=C/C(=O)SCCNC(=O)CCNC(=O)[C@H](O)C(C)(C)COP(=O)(O)OP(=O)(O)OC[C@H]1O[C@@H](n2cnc3c(N)ncnc32)[C@H](O)[C@@H]1OP(=O)(O)O; experiment: UHPLC, 3-hydroxybutyryl-CoA formation; settings: hydratase reaction, 100 mM Tris-HCl pH 9, 65 °C, apparent Km
Source text: UHPLC, 3-hydroxybutyryl-CoA formation on crotonyl-CoA hydratase/(S)-3-hydroxybutyryl-CoA dehydrogenase Msed_0399

[9] = substrate: CC(C)(COP(=O)(O)OP(=O)(O)OC[C@H]1O[C@@H](n2cnc3c(N)ncnc32)[C@H](O)[C@@H]1OP(=O)(O)O)[C@@H](O)C(=O)NCCC(=O)NCCSC(=O)CCO; experiment: Ccr-coupled assay, acryloyl-CoA formation, UHPLC; settings: dehydratase reaction, 100 mM MOPS/KOH pH 7.0, 42 °C, 1 mM NADPH and NaHCO3 for coupling enzyme, apparent Km
Source text: Ccr-coupled assay, acryloyl-CoA formation, UHPLC on crotonyl-CoA hydratase/(S)-3-hydroxybutyryl-CoA dehydrogenase Msed_0399

[10] = substrate: C[C@H](O)CC(=O)SCCNC(=O)CCNC(=O)[C@H](O)C(C)(C)COP(=O)(O)OP(=O)(O)OC[C@H]1O[C@@H](n2cnc3c(N)ncnc32)[C@H](O)[C@@H]1OP(=O)(O)O; experiment: (S)-3-hydroxybutyryl-CoA dehydrogenase assay with NAD; settings: dehydrogenase reaction with NAD, 65 °C, apparent Km
Source text: (S)-3-hydroxybutyryl-CoA dehydrogenase assay with NAD on crotonyl-CoA hydratase/(S)-3-hydroxybutyryl-CoA dehydrogenase Msed_0399

B1: (S)-3-hydroxybutyryl-CoA dehydrogenase Msed_0389 (Metallosphaera sedula DSM 5348) (protein)
chain: MKVFVIGSGVMGSGIGQVFAMAGHEVTLYDVKEEALKKAMEGIRWSLQKLQEKGSVKDVESVLSRIFTSRDLSEARDHLVIEAVFEDIKVKSDVLGRVSPLTDEIIASNTSSLPITELSRAVRNPERFLGMHFFNPPVLMKLVEVIRGDNTSEERFREALDIVKSLGKYPLPVRKDVFGFVVNRILFRLFTSACALLTQYTPHEIDYVAIKELGMPMGLIMLLDYTGLDVNYDISKEAERRGFPFKCDVLEGMVKSGKLGRKSGQGFYDWSKGKPEVKATSGPDPRELLRGAVEEAKWLISQGVVTREELETGLKLGLGMSRGILELGEILGVH
notes: full-length, N-terminal His10-tag (pET16b), recombinant in E. coli Rosetta 2 (DE3)
For B1, the Km [1] was 2.6 ± 1 µM, the Km [2] was 12 ± 2 µM and the Km [3] was 1500 ± 300 µM.

B2: (S)-3-hydroxybutyryl-CoA dehydrogenase Msed_1423 (Metallosphaera sedula DSM 5348) (protein)
chain: MRIAVVGSGTMGHGIAEVAAMAGMEVKLIDISWDILNRAKERMYDSLKRLHERGTIRETPDTVMSRIEISVSYDVAKDVDFAIEAVPEILELKRKVFQELDRVVPKESILATNTSSIPISDIGEITSRKEKVIGMHFFNPPPLMKLVEVIPSKYTSEDVTRYTVELAKKMGKTPVRLRVEVPGFVSNRIFLRLLQEACREVESGEATIEEVDSSARNKLKLPMGIFELADYVGLDVAVDLWKVIVERGASDVKCSSYKERVDRKELGVKTGKGFYTYPAPGKYSKVSLPPESKVPPERIISLAVNEGAWLIENNIVNAEEIDTVMRLGFNFPKGLLEMADELGLDKILNALREIHSRGYEAYSPNPLLVKMVSQGQTGKSSGRGFYTYGKT
notes: as for B1
Protein B2 has a Km [4] of 5 ± 2 µM, a Km [5] of 30 ± 3 µM and a Km [6] of 5100 ± 500 µM.

B3: crotonyl-CoA hydratase/(S)-3-hydroxybutyryl-CoA dehydrogenase Msed_0399 (Metallosphaera sedula DSM 5348) (protein)
chain: MKVTVIGSGVMGHGIAELAAIAGNEVWMNDISTEILQQAMERIKWSLSKLRESGSLKEGVEQVLARIHPETDQAQALKGSDFVIEAVKEDLELKRTIFRNAEAHASPSAVLATNTSSLPISEIASVLKSPQRVVGMHFFNPPVLMPLVEIVRGKDTSDEVVKTTAEMAKSMNKETIVVKDVPGFFVNRVLLRIMEAGCYLVEKGIASIQEVDSSAIEELGFPMGVFLLADYTGLDIGYSVWKAVTARGFKAFPCSSTEKLVSQGKLGVKSGSGYYQYPSPGKFVRPTLPSTSKKLGRYLISPAVNEVSYLLREGIVGKDDAEKGCVLGLGLPKGILSYADEIGIDVVVNTLEEMRQTSGMDHYSPDPLLLSMVKEGKLGRKSGQGFHTYAHEEAKYSTIVVRVEPPLAWIVLNRPTRYNAINGDMIREINQALDSLEEREDVRVIAITGQGRVFSAGADVTEFGSLTPVKAMIASRKFHEVFMKIQFLTKPVIAVINGLALGGGMELALSADFRVASKTAEMGQPEINLGLIPGGGGTQRLSRLSGRKGLELVLTGRRVKAEEAYRLGIVEFLAEPEELESEVRKLANAIAEKSPLAVASAKLAYKLGEETHIWTGTSLEASLFGLLFSTKDFEEGVRAFLEKRKPNFRGE
notes: full-length, untagged, recombinant in E. coli Rosetta 2 (DE3); N-terminal dehydrogenase domain (~40 kDa), C-terminal enoyl-CoA hydratase domain (~20 kDa)
Work on B3 yielded a Km [7] of 80 ± 10 µM, a Km [8] of 970 ± 70 µM and a Km [9] of 60 ± 20 µM. It also gave a Km [10] of 120 ± 10 µM.
